The values that follow come from the Immune Epitope Database (IEDB).

Experiment [1] addresses HLA-A*02:12. Put plainly: IEDB peptide-MHC binding, purified MHC/direct/fluorescence; filed as Kd, often an IC50 or EC50 that approximates it; ≥ and ≤ were set here for values at or beyond the usual limits of such assays. Particulars: source organism: Escherichia coli O157:H7 str. EC869.
In experiment [2] the target is HLA-B*51:01. Described as above. Particulars: source organism: Escherichia coli O157:H7 str. EC869.
In experiment [3] the target is HLA-A*03:01. The experiment is described as above. Particulars: source organism: Escherichia coli O157:H7 str. EC869.
The target in a further experiment is HLA-B*35:01. Described as above. Particulars: source organism: Escherichia coli O157:H7 str. EC869.
Experiment [4] addresses HLA-A*02:03. The description is as above. Conditions: source organism: Escherichia coli O157:H7 str. EC869.
For experiment [5], the target named is HLA-A*02:16. Described as above. Particulars: source organism: Escherichia coli O157:H7 str. EC869.
The target of experiment [6] is HLA-A*02:01. The description is as above. Conditions: source organism: Escherichia coli O157:H7 str. EC869.
For experiment [7], the target named is HLA-B*46:01. Described as above. Particulars: source organism: Escherichia coli O157:H7 str. EC869.
Another experiment concerns the target HLA-A*68:02. The description is as above. Particulars: source organism: Escherichia coli O157:H7 str. EC869.
Experiment [8] addresses HLA-A*69:01. The description is as above. Particulars: source organism: Escherichia coli O157:H7 str. EC869.
Experiment [9] has as its target HLA-A*02:19. The experiment is described as above. Conditions: source organism: Escherichia coli O157:H7 str. EC869.
The target of experiment [10] is HLA-B*39:01. Described as above. Conditions: source organism: Escherichia coli O157:H7 str. EC869.
Experiment [11] has as its target HLA-B*07:02. The description is as above. Conditions: source organism: Escherichia coli O157:H7 str. EC869.
Experiment [12] has as its target HLA-A*02:11. Described as above. Conditions: source organism: Escherichia coli O157:H7 str. EC869.
In experiment [13] the target is HLA-B*15:01. Described as above. Conditions: source organism: Escherichia coli O157:H7 str. EC869.
In experiment [14] the target is HLA-A*26:01. The experiment is described as above. Particulars: source organism: Escherichia coli O157:H7 str. EC869.
Experiment [15] concerns the target HLA-B*27:03. The description is as above. Particulars: source organism: Escherichia coli O157:H7 str. EC869.
In experiment [16] the target is HLA-B*57:01. Described as above. Particulars: source organism: Escherichia coli O157:H7 str. EC869.
In experiment [17] the target is HLA-A*02:12. In words: IEDB peptide-MHC binding, purified MHC/competitive/fluorescence; filed as Kd, often an IC50 or EC50 that approximates it; ≥ and ≤ were set here for values at or beyond the usual limits of such assays.
The target in experiment [18] is HLA-B*51:01. Described as above. Particulars: source organism: Vibrio cholerae 2740-80.
In experiment [19] the target is HLA-A*03:01. The experiment is described as above.
Experiment [20] has as its target HLA-A*02:03. The description is as above.
For another experiment, the target named is HLA-A*24:03. The description is as above.
Experiment [21] concerns the target HLA-A*02:16. The experiment is described as above.
Experiment [22] concerns the target HLA-A*02:01. Described as above.
Experiment [23] has as its target HLA-B*46:01. The description is as above.
Experiment [24] addresses HLA-A*02:19. Described as above.
Experiment [25] addresses HLA-B*39:01. The experiment is described as above.
The target of another experiment is HLA-B*18:01. The description is as above.
For experiment [26], the target named is HLA-A*02:11. The description is as above.
The target in experiment [27] is HLA-B*15:01. The experiment is described as above. Particulars: source organism: Vibrio cholerae 2740-80.
In experiment [28] the target is HLA-A*26:01. Described as above.
Experiment [29] has as its target HLA-B*27:03. The description is as above.
Experiment [30] deals with HLA-B*57:01. The experiment is described as above.
For the next experiment, the target named is HLA-A*02:06. Described as above.
For experiment [31], the target named is HLA-A*69:01. The experiment is described as above. Conditions: source organism: Human immunodeficiency virus type 1 (ELI ISOLATE).
The target of another experiment is HLA-A*31:01. Described as above.
Another experiment addresses HLA-A*11:01. In words: IEDB peptide-MHC binding, purified MHC/direct/fluorescence; filed as Kd, often an IC50 or EC50 that approximates it; ≥ and ≤ were set here for values at or beyond the usual limits of such assays.
The target in experiment [32] is HLA-B*07:02. In words: IEDB peptide-MHC binding, purified MHC/competitive/fluorescence; filed as Kd, often an IC50 or EC50 that approximates it; ≥ and ≤ were set here for values at or beyond the usual limits of such assays. Conditions: source organism: Mycobacterium tuberculosis variant bovis BCG str. Pasteur 1173P2.
The mark [33] stands for this setting: source organism: Vibrio cholerae 2740-80.
The mark [34] stands for this setting: source organism: Giardia lamblia ATCC 50803.
Setting [35] is: source organism: Human immunodeficiency virus type 1 (ELI ISOLATE).
Where [36] appears, read: source organism: Mycobacterium tuberculosis variant bovis BCG str. Pasteur 1173P2.
[37] abbreviates: source organism: Escherichia coli ATCC 8739.

Broadly, the Kd is a measure of binding affinity in units of concentration. Higher therefore signals lower affinity. For YGSWFGLIY, the Kd in the experiment with HLA-A*02:12 [1] is at least 20 µM; with HLA-B*51:01 [2], at least 20 µM; in the experiment with HLA-A*03:01 [3] it was at least 20 µM; with HLA-B*35:01 it was 0.006 µM; in the experiment with HLA-A*02:03 [4], at least 20 µM; with HLA-A*02:16 [5], at least 20 µM. For the same sequence, the dissociation constant Kd in the experiment with HLA-A*02:01 [6], with HLA-B*46:01 [7], in the experiment with HLA-A*68:02, with HLA-A*69:01 [8], with HLA-A*02:19 [9] and with HLA-B*39:01 [10] was at least 20 µM throughout. Moreover, the Kd was at least 20 µM in the experiment with HLA-B*07:02 [11]; at least 20 µM with HLA-A*02:11 [12]; 0.18 µM with HLA-B*15:01 [13]; at least 20 µM with HLA-A*26:01 [14]; at least 20 µM with HLA-B*27:03 [15]; at least 20 µM with HLA-B*57:01 [16].
Take IFIRTIYYH: the Kd in the experiment with HLA-A*02:12 [17] (setting [33]), in the experiment with HLA-B*51:01 [18], with HLA-A*03:01 [19] (setting [33]), with HLA-A*02:03 [20] (setting [33]), with HLA-A*24:03 (setting [33]) and with HLA-A*02:16 [21] (setting [33]) was at least 20 µM in each case. Moreover, the Kd in the experiment with HLA-A*02:01 [22] (setting [33]), with HLA-B*46:01 [23] (setting [33]), in the experiment with HLA-A*02:19 [24] (setting [33]), with HLA-B*39:01 [25] (setting [33]), in the experiment with HLA-B*18:01 (setting [33]) and in the experiment with HLA-A*02:11 [26] (setting [33]) was at least 20 µM throughout. Further, the Kd with HLA-B*15:01 [27], in the experiment with HLA-A*26:01 [28] (setting [33]), with HLA-B*27:03 [29] (setting [33]) and with HLA-B*57:01 [30] (setting [33]) was at least 20 µM throughout.
For MARPADASM, the Kd with HLA-A*02:12 [17] (setting [34]), in the experiment with HLA-A*03:01 [19] (setting [34]), in the experiment with HLA-A*02:03 [20] (setting [34]), with HLA-A*24:03 (setting [34]), with HLA-A*02:16 [21] (setting [34]) and with HLA-A*02:01 [22] (setting [34]) was at least 20 µM each time. Moreover, the dissociation constant Kd was 2.2 µM in the experiment with HLA-B*46:01 [23] (setting [34]); at least 20 µM with HLA-A*02:19 [24] (setting [34]); at least 20 µM with HLA-B*39:01 [25] (setting [34]); at least 20 µM with HLA-B*18:01 (setting [34]); at least 20 µM with HLA-A*02:11 [26] (setting [34]); at least 20 µM with HLA-A*26:01 [28] (setting [34]). Also, the figures for the equilibrium dissociation constant (Kd) in the experiment with HLA-B*27:03 [29] (setting [34]) and in the experiment with HLA-B*57:01 [30] (setting [34]) were at least 20 µM and 0.121 µM, respectively.
On to SLGQHIYET, for which the Kd was 0.0225 µM in the experiment with HLA-A*02:12 [17] (setting [35]); 0.0065 µM in the experiment with HLA-A*02:03 [20] (setting [35]); 0.006 µM in the experiment with HLA-A*02:16 [21] (setting [35]); 0.012 µM with HLA-A*02:01 [22] (setting [35]); 0.011 µM with HLA-A*02:06 (setting [35]); at least 20 µM with HLA-A*69:01 [31]. For the same sequence, the Kd with HLA-A*02:19 [24] (setting [35]) is 0.084 µM.
Regarding SYYCAGLKK, the Kd stood at 1.96 µM with HLA-A*31:01 (source organism: dengue virus type 1) and 0.0801 µM in the experiment with HLA-A*11:01 (source organism: Dengue virus 1 Singapore/S275/1990).
As for SLYEKSGSV, the Kd was 0.0341 µM in the experiment with HLA-A*02:12 [17] (setting [36]); at most 0.001 µM with HLA-A*02:03 [20] (setting [36]); 0.13 µM in the experiment with HLA-A*02:19 [24] (setting [36]); at least 20 µM with HLA-B*07:02 [32]; 0.0011 µM with HLA-A*02:11 [26] (setting [36]).
As to LTYRHKVVK, the Kd was 0.0239 µM with HLA-A*31:01 (source organism: Japanese encephalitis virus) and 0.0298 µM with HLA-A*11:01 (source organism: West Nile virus).
As to GLLDWGMQQ, the results for the dissociation constant (Kd) in the experiment with HLA-A*02:01 [22] (setting [37]) and with HLA-A*02:06 (setting [37]) were 0.119 µM and 1.55 µM, respectively.
